Positions count from the first letter of the chain named. Names and notes keep the numbering of the source. One block for each binder: values may come before it.
Columns and labels:
[1] = biological target: T1, PTPRG-Fc (ECD of human PTPRG, aa 20-736, fused to human Fc gamma 1) (human, UniProt P23470 20-736); assay: ELISA on coated PTPRG-Fc
T1 construct: Made in-house in Expi293 cells; Used in ELISA and SPR; also called recombinant PTPRG-Fc; PTRPG; not shown: human IgG1 Fc (Fc gamma 1) after the hinge
T1 sequence: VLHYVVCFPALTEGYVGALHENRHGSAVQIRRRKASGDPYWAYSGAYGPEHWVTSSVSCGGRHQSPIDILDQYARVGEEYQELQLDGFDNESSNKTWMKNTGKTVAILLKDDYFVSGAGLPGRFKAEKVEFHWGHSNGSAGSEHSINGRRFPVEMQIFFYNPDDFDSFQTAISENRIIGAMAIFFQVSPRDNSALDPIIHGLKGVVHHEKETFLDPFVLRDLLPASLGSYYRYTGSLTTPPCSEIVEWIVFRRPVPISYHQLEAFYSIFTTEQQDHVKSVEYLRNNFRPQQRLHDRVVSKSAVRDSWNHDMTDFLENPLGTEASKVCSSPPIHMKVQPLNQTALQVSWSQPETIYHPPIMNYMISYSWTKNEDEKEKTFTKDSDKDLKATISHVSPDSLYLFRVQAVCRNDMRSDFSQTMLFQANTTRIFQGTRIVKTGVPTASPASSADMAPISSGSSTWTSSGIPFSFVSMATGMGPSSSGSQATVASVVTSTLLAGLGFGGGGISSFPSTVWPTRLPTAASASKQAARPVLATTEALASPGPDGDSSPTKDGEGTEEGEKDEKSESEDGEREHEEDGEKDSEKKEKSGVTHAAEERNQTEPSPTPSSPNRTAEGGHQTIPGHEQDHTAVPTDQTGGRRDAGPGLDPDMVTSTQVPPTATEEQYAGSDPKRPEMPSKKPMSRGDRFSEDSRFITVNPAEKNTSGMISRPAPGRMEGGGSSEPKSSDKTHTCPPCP
Experimental: Recombinant purified ECDs (50-150 ng) of each putative target protein were coated, incubated with 150 ng of the indicated primary antibody, and binding was detected using a peroxidase-conjugated anti-human Fab secondary antibody. Heatmap represents averages of technical triplicates. (8B) Target validation via siRNA knockdown. H929 cells were transfected with siRNA pools targeting the putative antibody targets ICAM1, CADM1, and PTPRG. Cells were then subjected to cognate IgG binding analysis via flow cytometry. (NT, non-targeting siRNA).
ELISA ELISA was conducted as described previously. Briefly, 50-150 ng of antigen was coated overnight in half-area 96-well plates at 4° C., blocked with 3% BSA at 37° C. for 1 h, and 150 ng of chimeric rabbit/human IgG1 was added, incubating for 2 h at 37° C. […] After incubating at 37° C. for 15 min-1 h (depending on intensity of controls), data were acquired using a SpectraMax M5 plate reader (Molecular Devices).

[2] = biological target: T2, CADM1, endogenous in H929 multiple myeloma cells (human, UniProt Q9BY67 45-442); assay: flow cytometry, IgG1 on H929 cells
T2 construct: Native protein on H929 cells (flow cytometry, siRNA knockdown) and in H929 lysates (IP/MS); also called IGSF4A
T2 sequence: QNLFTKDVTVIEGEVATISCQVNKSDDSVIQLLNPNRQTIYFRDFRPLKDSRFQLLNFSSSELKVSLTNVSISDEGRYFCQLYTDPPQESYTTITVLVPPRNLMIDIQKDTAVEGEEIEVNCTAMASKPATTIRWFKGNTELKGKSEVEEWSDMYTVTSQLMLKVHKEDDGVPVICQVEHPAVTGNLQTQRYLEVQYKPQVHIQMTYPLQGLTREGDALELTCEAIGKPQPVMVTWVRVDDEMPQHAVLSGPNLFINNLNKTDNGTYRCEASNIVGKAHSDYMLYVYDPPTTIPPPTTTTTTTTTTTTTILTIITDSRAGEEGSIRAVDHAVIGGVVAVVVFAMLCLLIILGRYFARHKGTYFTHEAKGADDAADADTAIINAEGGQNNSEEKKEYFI
Experimental: (§1) Staining protocol. Cells were harvested (5×10⁴ cells per sample), washed once with phosphate-buffered saline (PBS) at RT, and a second time with ice-cold FACS buffer (PBS, 0.5% BSA, 2 mM EDTA, 0.1% NaN₃). Cells were stained in 50 μL of primary antibody for 30 min on ice, washed twice with 100 μL FACS buffer, stained with 50 μL of diluted secondary antibody, washed two more times in FACS, and then resuspended in 50 μL FACS buffer. Samples were acquired on an Accuri C6 Plus or a BD FACSCanto II flow cytometer (both from BD Biosciences). Data were analyzed using FlowJo version 10 software. Primary antibodies: Fab (10 μg/mL), IgG1 (0.1 to 50 μg/mL), or 25 μL polyclonal Fabs from periplasmic extracts. Polyclonal Fabs were produced by diluting bacterial stocks by a factor of 100 in autoinduction media and incubating overnight to induce expression as previously described. […] Viability stains: DAPI (Cell Signaling Technology) or SYTOX AADvanced Dead Cell Stain (Thermo Fisher Scientific). Labeling: The panel of chimeric rabbit/human IgG1s was labeled using the Alexa Fluor 647 Labeling Kit (Thermo Fisher Scientific, #A20173) to facilitate single-step staining. Competition: Unlabeled IgG1s were added at saturating concentrations of 60 μg/mL to block the target receptors, incubating on ice for 30 min, followed by the addition of an equal volume of the Alexa Fluor 647 labeled antibody at 2 μg/mL, and the mixture was incubated on ice for another 30 min.

[3] = biological target: T3, CADM1 on RPMI-8226 cells (human, UniProt Q9BY67); assay: flow cytometry, IgG1 on RPMI-8226 cells
T3 sequence (single chain, looked up): T2 sequence
Experimental: as §1

[4] = biological target: T2, CADM1, endogenous in H929 multiple …; assay: flow cytometry, H929 + NT Green siRNA; None 416

B1: HW-56 chimeric rabbit-human IgG1 LA/LA/PG (antibody, V domains shown)
VH: QSVKESEGGLFKPTDTLTLTCTASGFTVSTNAVTWVRQAPGNGLEYIGTIGRSGSAYFASWAKRRSTLTRDINLNTVTLKMTSLTAADTATYFCVRGSPGYRTAISIWGPGTLVTISS
VL: AVMTQTPSSTSAAVEGTVTINCQASQSISNRLSWFQQKPGQPPKLLIYQASTLASGVPSRFKGSGSGTEFTLTISGVQREDAATYYCLGSYSSSDASFGGGTKLEIKR
notes: Fc-silenced (L234A/L235A/P329G) IgG1, kappa; Alexa Fluor 647-labeled in single-step flow cytometry; Cluster C-45
binding result [1]: no binding (tested: 150 ng IgG1 per well)

B2: HW-101 chimeric rabbit-human IgG1 LA/LA/PG (antibody, V domains shown)
VH: QEQLVESGGRLVTPGTPLTLTCKASGFSLGKYDMSWVRQAPGKGLEWIGTIYAGSGSTWYASWAKGRFTISKTSTTVDLKMTSLTTEDTATYFCARDFLGVNSIWGPGTLVTISS
VL: SFVLTQPASVQVNLGQTVSLTCTADTLSRSYASWYQQKPDQAPVLLIHRDTSRPSGVPDRFSGSNSGNTATLTISGAQAGDEADYYCATSDGSGSNFHFVFGGGTQLTVTG
notes: Fc-silenced (L234A/L235A/P329G) IgG1, lambda; Alexa Fluor 647-labeled in single-step flow cytometry; Cluster C-97
antibody-bound positive cells (%) [2]: 95.3%
antibody-bound positive cells (%) [3]: 97.6%
mAb binding (MFI) [4]: 6440

B3: HW-81 chimeric rabbit-human IgG1 LA/LA/PG (antibody, V domains shown)
VH: QKQLVESGGGLVTPGGTLTLTCTVSGFSLSSNGVSWVRQAPGKGLEYIGLIRSIGSTYYATWAKGRFTISKTSTTVDLKITSPTTEDTATYFCARGGYRNGFKLWGPGTLVTVSS
VL: QPVLTQSPSVSAALGASAKLTCTLSSAHKTYYIEWYQQQHPGKAPRYLMQLQSDGSYTKGTGVPDRFSGSSSGADRYLIISSVQAEDEADYICGVIDSAVYVFGGGTQLTVTG
notes: Fc-silenced (L234A/L235A/P329G) IgG1, lambda; Alexa Fluor 647-labeled in single-step flow cytometry; Cluster C-45
binding result [1]: no binding (tested: 150 ng IgG1 per well)

B6: HW-28 chimeric rabbit-human IgG1 LA/LA/PG (antibody, V domains shown)
VH: QKQLVESGGRLVTPGTPLTLTCTASGFSLSSNAMSWVRQAPGEGLQWIGTISSGGSTYYASWAKGRFTISKTSTTVTLKMTSLTTEDTATYFCARGADLHRLWGPGTLVTVSS
VL: SFVLTQPASVQVNLGQTVSLTCTGKPLSRSFASWYQQKPGQAPVLVIYRDTSRPSGVPDRFSGSSSGNTATLTISGAQAGDEADYYCATSDGSGSSYQYVFGGGTQLTVTG
notes: as for B3
binding result [1]: no binding (tested: 150 ng IgG1 per well)

B7: HW-97 chimeric rabbit-human IgG1 LA/LA/PG (antibody, V domains shown)
VH: QKQLVESGGRLVTPGTPLTLTCTVTGIDLSSHGMSWVRQAPGKGLEWIGVIYPSGSTWYASWARGRFTISKTSTTVDLKMTSLTTEDTATHFCARGDVGGADNNIWGPGTLVTVSS
VL: B6 VL with N13D, G24A, K25E, P26T, F31Y, V46L
notes: Fc-silenced (L234A/L235A/P329G) IgG1, lambda; Alexa Fluor 647-labeled in single-step flow cytometry; Prototype of cluster C-97
antibody-bound positive cells (%) [2]: 98.6%
antibody-bound positive cells (%) [3]: 98.8%
mAb binding (MFI) [4]: 9600

Second part, led by results:

mAb binding (MFI) [4]: 483
B4: TH9-0022 (antibody, human IgG1, kappa, L234A L235A, V domains shown)
VH: QSLEESGGRLVTPGTPLTLTCTVSGFSLSSYAMNWVRQAPGKGLEWIGIINSYGSTYYASWAKGRFTISKTSTTVDLKITSPTTEDTATYFCARVTYDSYGYGYAPYGMDLWGPGTLVTVSS
VL: LVMTQTPSSTSNAVGGTVTIKCQASQSIGNVLAWYQQKPGQPPKLLIYAASTLASGVPSRVGGSRSGTEYTLTISGVQREDAATYYCLGSDSDSDIAFGGGTELEILR
notes: also called TH9-022; negative control
binding result [1]: no binding (tested: 150 ng IgG1 per well)

antibody-bound positive cells (%) [2]: 2.7%
antibody-bound positive cells (%) [3]: 3%
binding result [3]: no binding
B5: TH9-0022 (antibody, human IgG1, kappa, L234A L235A, V domains shown)
VH: B4 VH
VL: B4 VL
notes: also called TH9-022; negative control IgG1
